Measurements: article PMC10530723, “The Conserved Chromatin Remodeler SMARCAD1 Interacts with TFIIIC and Architectural Proteins in Human and Mouse” (Genes, 2023)

Biological target: T1, His-SMARCAD1 (human, recombinant) (human, UniProt Q9H4L7 1-1026)
T1 construct: also called hSMARCAD1; His-tagged human SMARCAD1; source: insect cells (baculovirus), purified via a His-tag
T1 sequence (looked up): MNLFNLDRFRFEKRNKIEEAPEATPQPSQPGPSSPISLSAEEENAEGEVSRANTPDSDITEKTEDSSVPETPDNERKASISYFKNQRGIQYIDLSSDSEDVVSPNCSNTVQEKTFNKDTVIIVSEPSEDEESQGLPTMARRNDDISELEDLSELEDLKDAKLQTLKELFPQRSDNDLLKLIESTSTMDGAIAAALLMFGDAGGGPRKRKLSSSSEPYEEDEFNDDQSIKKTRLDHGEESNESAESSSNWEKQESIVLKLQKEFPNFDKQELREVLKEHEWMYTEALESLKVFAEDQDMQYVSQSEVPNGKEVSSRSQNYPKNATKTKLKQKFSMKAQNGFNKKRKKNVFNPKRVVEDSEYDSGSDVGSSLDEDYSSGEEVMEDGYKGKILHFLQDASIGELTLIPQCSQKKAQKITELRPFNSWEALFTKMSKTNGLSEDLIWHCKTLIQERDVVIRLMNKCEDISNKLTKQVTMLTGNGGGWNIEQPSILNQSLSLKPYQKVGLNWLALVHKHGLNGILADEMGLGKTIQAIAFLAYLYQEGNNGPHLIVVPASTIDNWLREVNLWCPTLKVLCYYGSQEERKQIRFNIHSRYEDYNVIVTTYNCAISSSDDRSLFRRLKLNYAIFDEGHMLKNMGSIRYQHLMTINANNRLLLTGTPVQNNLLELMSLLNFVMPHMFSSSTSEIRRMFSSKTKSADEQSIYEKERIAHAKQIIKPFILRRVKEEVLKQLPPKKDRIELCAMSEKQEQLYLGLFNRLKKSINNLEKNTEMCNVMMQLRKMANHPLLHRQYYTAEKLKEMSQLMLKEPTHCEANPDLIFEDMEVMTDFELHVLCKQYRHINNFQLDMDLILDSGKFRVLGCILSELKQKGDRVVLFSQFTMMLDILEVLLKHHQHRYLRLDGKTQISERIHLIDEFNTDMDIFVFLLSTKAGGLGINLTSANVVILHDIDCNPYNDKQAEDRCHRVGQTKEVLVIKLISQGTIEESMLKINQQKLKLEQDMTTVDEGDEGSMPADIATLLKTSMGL
Test: pull-down; GST fusion proteins on glutathione Sepharose 4B beads (13 ug protein), 1 ug His-Smarcad1 in solution; 100 mM NaCl, 20 mM Hepes, 5% glycerol, 0.1% Triton; 1.5 h at 4 °C; bound protein detected by Western blot with anti-SMARCAD1
Conditions: both partners purified

binding result: binds
B1: GST-TFIIIC102 (human, full-length) (natural protein, UniProt Q9Y5Q9 1-886, looked up)
chain: MSGFSPELIDYLEGKISFEEFERRREERKTREKKSLQEKGKLSAEENPDDSEVPSSSGINSTKSQDKDVNEGETSDGVRKSVHKVFASMLGENEDDEEEEEEEEEEEEEEETPEQPTAGDVFVLEMVLNRETKKMMKEKRPRSKLPRALRGLMGEANIRFARGEREEAILMCMEIIRQAPLAYEPFSTLAMIYEDQGDMEKSLQFELIAAHLNPSDTEEWVRLAEMSLEQDNIKQAIFCYTKALKYEPTNVRYLWERSSLYEQMGDHKMAMDGYRRILNLLSPSDGERFMQLARDMAKSYYEANDVTSAINIIDEAFSKHQGLVSMEDVNIAAELYISNKQYDKALEIITDFSGIVLEKKTSEEGTSEENKAPENVTCTIPDGVPIDITVKLMVCLVHLNILEPLNPLLTTLVEQNPEDMGDLYLDVAEAFLDVGEYNSALPLLSALVCSERYNLAVVWLRHAECLKALGYMERAAESYGKVVDLAPLHLDARISLSTLQQQLGQPEKALEALEPMYDPDTLAQDANAAQQELKLLLHRSTLLFSQGKMYGYVDTLLTMLAMLLKVAMNRAQVCLISSSKSGERHLYLIKVSRDKISDSNDQESANCDAKAIFAVLTSVLTKDDWWNLLLKAIYSLCDLSRFQEAELLVDSSLEYYSFYDDRQKRKELEYFGLSAAILDKNFRKAYNYIRIMVMENVNKPQLWNIFNQVTMHSQDVRHHRFCLRLMLKNPENHALCVLNGHNAFVSGSFKHALGQYVQAFRTHPDEPLYSFCIGLTFIHMASQKYVLRRHALIVQGFSFLNRYLSLRGPCQESFYNLGRGLHQLGLIHLAIHYYQKALELPPLVVEGIELDQLDLRRDIAYNLSLIYQSSGNTGMAQTLLYTYCSI
notes: TFIIIC102, human, full-length, cDNA from OriGene (RC208122) cloned into pGEX-6P-1 (BamH1/Not1); pGEX-6P-1 places GST at the N-terminus (surmised from the vector; the reverse primer carries the stop codon); also called hTFIIIC102; human TFIIIC102 GST-fusion protein; source: E. coli, purified (glutathione Sepharose 4B beads)
